From publication PMC7110144

How the values were obtained:
[1] = target: His-CAL1(1-50) (Drosophila melanogaster) (UniProt Q9VEN2); experiment: SEC-MALS; complexes refolded from recombinant proteins; Superdex 200 increase 10/300 GL, 50 mM HEPES pH 8.0, 2 M NaCl, 1 mM TCEP, 22°C; 100 µl of 1-5 mg/ml
[2] = target: His-CAL1(1-160) (Drosophila melanogaster) (UniProt Q9VEN2); experiment: as above
Sequence of His-CAL1(1-160) (Drosophila melanogaster) (Q9VEN2 entry or part of it): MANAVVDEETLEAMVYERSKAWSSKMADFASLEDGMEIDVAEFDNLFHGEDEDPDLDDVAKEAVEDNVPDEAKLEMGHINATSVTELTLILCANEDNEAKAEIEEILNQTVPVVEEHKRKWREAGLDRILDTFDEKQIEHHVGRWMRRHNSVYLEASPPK

Sequence of His-CAL1(1-50) (Drosophila melanogaster) (Q9VEN2 entry or part of it): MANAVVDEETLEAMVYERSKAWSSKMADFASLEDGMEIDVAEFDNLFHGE
Sequence of CENP-A(144-225)-H4 (Q9V6Q2 144-225, one chain of several): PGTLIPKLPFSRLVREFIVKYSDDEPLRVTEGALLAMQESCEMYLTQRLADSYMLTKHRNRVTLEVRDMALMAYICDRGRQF
Sequence of CENP-A(101-225)-H4 (from UniProt Q9V6Q2 101-225; P84040 1-103) (complex) (Q9V6Q2 101-225, one chain of several): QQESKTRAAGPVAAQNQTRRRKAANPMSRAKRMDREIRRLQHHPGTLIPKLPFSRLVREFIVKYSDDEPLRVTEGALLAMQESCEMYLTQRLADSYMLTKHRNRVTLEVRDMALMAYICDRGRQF
Sequence of CENP-A(101-225)-H4 (from UniProt Q9V6Q2 101-225; P84040 1-103) (complex; other documents disagree on this pair) (Q9V6Q2 101-225, one chain of several): as above

stoichiometry N (CAL1:CENP-A:H4 = 1:1:1) [1] | stoichiometry N (CAL1:CENP-A:H4 = 1:1:1) [2] | Substance
1 | – | CENP-A(101-225)-H4 (from UniProt Q9V6Q2 101-225; P84040 1-103) (complex)
– | 1 | CENP-A(101-225)-H4 (from UniProt Q9V6Q2 101-225; P84040 1-103) (complex; other documents disagree on this pair)
– | 1 | CENP-A(144-225)-H4 (from UniProt Q9V6Q2 144-225; P84040 1-103) (complex; other documents disagree on this pair)
